T1: trypsin (Bos taurus, UniProt P00760)
T1 construct: gene PRSS1
T1 sequence (P00760 24-246): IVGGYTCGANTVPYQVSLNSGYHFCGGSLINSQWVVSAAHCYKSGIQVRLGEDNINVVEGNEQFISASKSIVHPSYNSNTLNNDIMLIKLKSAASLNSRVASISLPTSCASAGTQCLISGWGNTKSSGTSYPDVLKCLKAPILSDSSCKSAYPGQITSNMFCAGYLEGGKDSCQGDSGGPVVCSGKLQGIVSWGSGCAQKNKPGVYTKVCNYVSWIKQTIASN


Tests used:
trypsin [1] = target: T1, trypsin; assay: Monoclonal phage TRF binding assay on trypsin (KnotBody clones and GlyAla mutants); conditions: for % reduction in binding signal: GlyAla mutant (EETI-II Pro3 to Gly, Arg4 to Ala) of the clone versus the clone, monoclonal phage, trypsin on streptavidin plates; for Tryspin binding signal (FU): monoclonal phage supernatant of round-2 clones, biotinylated trypsin on neutravidin plates
Description: Phage display technology facilitates isolation of binders to any given target from large combinatorial repertoires based on proteins and peptides that can be presented on the surface of filamentous phage^105. In order to isolate functional knottin-antibody fusions from the KnotBody libraries multiple rounds of phage display selections on trypsin (cognate antigen for the EETI-II donor) were carried out. Phage particles were prepared by rescuing KnotBody libraries using trypsin cleavable helper phage^102,106Two rounds of phage display selections were performed on 10 μg/ml biotinylated trypsin immobilised on Streptavidin (for Round-1) or Neutravidin (for round-2) coated Maxisorp™ immunotubes (Thermo Scientific, Cat No. 444202). In both rounds of selection, phage libraries were pre-incubated with streptavidin coated paramagnetic beads (Thermo Fisher Scientific, Cat. No. 11205D). These beads were removed prior to the addition the phage to the antigen tubes to limit the streptavidin binders entering the selection. Polyclonal phage preparations from round-2 selection outputs were analysed for trypsin binding using a time resolved fluorescence (TRF) binding assay. In this assay, polyclonal phage binding to biotinylated trypsin immobilised on neutravidin (Thermo Fisher Scientific, Cat. No 31000) coated Maxisorp™ plates (Thermo Scientific, Cat. No. 437111) was detected using a mouse anti-M13 antibody (GE Healthcare, Cat. No. 27-9420-01) followed by europium conjugated anti-mouse antibody (Perkin Elmer, Cat. No. AD0124).
In order to identify monoclonal KnotBodies with desired binding characteristics, 94 individual clones derived from 2 rounds of selection using EETI-II CDR1 or CDR2 libraries were picked into 96 well culture plates and phage were prepared from each clone. Methods for screening by monoclonal phage ELISA are known in the art^107. […] Clones with >3× binding signal above background were picked as positive clones and sequenced to identify unique clones. 14 and 42 unique binders were identified from EETI-II CDR1 and EETI-II CDR2 libraries respectively (Table 1). 18 binders from the EETI-II CDR2 library and 3 binders from the EETI-II-CDR1 library were chosen for further characterisation based on their VL and linker sequence diversity. These binders were assigned new clone identification numbers (Table 2).
The trypsin binding capability of EETI-II is attributed to proline (Pro3) and arginine (Arg4) residues present in its loop1 (GCPRILMRC; SEQ ID NO: 68). […] Monoclonal phage was prepared from the 21 selected clones and their mutant equivalents. […] Replacement of the trypsin-binding residues of EETI-II abolished the ability of all KnotBody clones to bind to trypsin (Table 3). In order to confirm that the loss of trypsin binding was not due to reduced expression or display of pIII fusion phage was prepared from 11 (randomly chosen) KnotBodies and their GlyAla variants were analysed on a western blot using an antibody which recognises the product of gene 3 (pIII) using an anti-pIII antibody (MoBiTec GmbH) (FIG. 6).

trypsin [2] = target: T1, trypsin; assay: KnotBody Fab TRF binding assay on trypsin; conditions: Fab format
trypsin [3] = target: T1, trypsin; assay: Monoclonal phage ELISA on trypsin, EET 5-3 framed KnotBodies; type: binding; conditions: value in brackets after the clone name
Excerpt: Following selection on trypsin, as described in example 3, positive clones were identified by monoclonal phage ELISA and their sequences determined. Examples of positive clones in CDR1 or CDR 2 of kappa and lambda light chains are shown in Table 29 with the linker sequences shown in lower case and the knottin donor in a 5-3 frame shown in italics. Also shown is the value of ELISA signal attained from monoclonal phage ELISA. The specificity of interaction was further confirmed by mutating the pair of Proline-Arginine residues involved in interaction with trypsin to alanine-alanine which diminished binding (as described in example 3).

Molecule | % reduction in binding signal (trypsin [1]) [%] | Tryspin binding signal (FU) (trypsin [1]) | TRF signal for 0.6 ug/mL Fab (trypsin [2]) | TRF signal for 2.4 ug/mL Fab (trypsin [2]) | TRF signal for 10 ug/mL Fab (trypsin [2]) | ELISA signal from monoclonal phage ELISA (trypsin [3])
KB_C10: KnotBody, EETI-II in VL CDR2; VL SEQ ID NO: 123 (antibody, V domains shown, EETI-II in VL CDR2; CDR2_E_05) VL: QSVLTQPPSVSEAPRQRVTITCSGSSSNIGNNAVNWYQQLPGKAPKLLIYAAGPCPRILMRCKQDSDCLAGCVCGPNGFCGADSGVSDRFSGSKSGTSASLAITGLQAEDEGDYYCAAWDDSLNGLVFGGGTKVTVLGQP | 100 | 118631 | 41709 | 146488 | 238066 | –
F01: KnotBody with EET 5-3 framed EETI-II in kappa VL CDR2; SEQ ID NO: 312 (protein, F01 (101798)) DIQMTQSPSSLSASVGDRVTITCRASQSISSYLNWYQQKPGKAPKLLIDAAGECGPNGFCGSGSDGGVCPRINMRCKQDSDCLAGCGRDSGVPSRFSGSGSGTDFTLTISSLQPEDFATYYCQQSYSTPWTFGQGTKVEIKRT | – | – | – | – | – | F01 (101798)
G11: KnotBody with EET 5-3 framed EETI-II in VL CDR2; SEQ ID NO: 317 (protein, G11 (27650)) QSVLTQPPSVSEAPRQRVTITCSGSSSNIGNNAVNWYQQLPGKAPKLLIYAAGGCGPNGFCGSGSDGGVCPRILMRCKQDSDCLAGCGQSSGVSDRFSGSKSGTSATLDITGLQTGDEADYYCGTWDNSLSVGVFGGGTKVTVLGQP | – | – | – | – | – | G11 (27650)
KB_C09: KnotBody, EETI-II in VL CDR2; VL SEQ ID NO: 120 (antibody, V domains shown, EETI-II in VL CDR2; CDR2_C_08) VL: QSVLTQPPSVSEAPRQRVTITCSGSSSNIGNNAVNWYQQLPGKAPKLLIYAAGRCPRILMRCKQDSDCLAGCVCGPNGFCGGGSGVPDRFSGSIDSSSNSASLTISGLRAEDEADYYCQSYDSSNHWVFGGGTKLTVLGQP | 100 | 89424 | 46788 | 204878 | 288988 | –
F07: KnotBody with EET 5-3 framed EETI-II in VL CDR2; SEQ ID NO: 314 (protein, F07 (72824)) QSVLTQPPSVSEAPRQRVTITCSGSSSNIGNNAVNWYQQLPGKAPKLLIYAAGGCGPNGFCGSGSDGGVCPRILMRCKQDSDCLAGCGGQSGVPDRFSGSKSGTSASLAISRLQSEDEADYYCAAWDDSLNAYVFGTGTKVTVLGQP | – | – | – | – | – | F07(72824)
KB_B11: KnotBody, EETI-II in VL CDR1; VL SEQ ID NO: 86 (antibody, V domains shown, heavy chain missing; CDR1_F_02) VL: QSVLTQPPSVSEAPRQRVTITCGSRPCPRILMRCKQDSDCLAGCVCGPNGFCGSHNWYQQLPGSSPTTVIYEDNQRPSGVPDRFSGSIDRSSNSASLTISGLKTEDEADYYCQSYDSSNHRVVFGGGTKLTVLGQP | 100 | 10286 | – | – | – | –

Reference: US20260043020A1, “BINDING MEMBERS WITH ALTERED DIVERSITY SCAFFOLD DOMAINS” (priority 2016, published 2026)
